{"source": "IntAct's records for PubMed 14596906", "parents": {"B1": {"name": "Formin-binding protein 1 (Homo sapiens), Q96RU3 (parent)", "chain": "MSWGTELWDQFDNLEKHTQWGIDILEKYIKFVKERTEIELSYAKQLRNLSKKYQPKKNSKEEEEYKYTSCKAFISNLNEMNDYAGQHEVISENMASQIIVDLARYVQELKQERKSNFHDGRKAQQHIETCWKQLESSKRRFERDCKEADRAQQYFEKMDADINVTKADVEKARQQAQIRHQMAEDSKADYSSILQKFNHEQHEYYHTHIPNIFQKIQEMEERRIVRMGESMKTYAEVDRQVIPIIGKCLDGIVKAAESIDQKNDSQLVIEAYKSGFEPPGDIEFEDYTQPMKRTVSDNSLSNSRGEGKPDLKFGGKSKGKLWPFIKKNKLMSLLTSPHQPPPPPPASASPSAVPNGPQSPKQQKEPLSHRFNEFMTSKPKIHCFRSLKRGLSLKLGATPEDFSNLPPEQRRKKLQQKVDELNKEIQKEMDQRDAITKMKDVYLKNPQMGDPASLDHKLAEVSQNIEKLRVETQKFEAWLAEVEGRLPARSEQARRQSGLYDSQNPPTVNNCAQDRESPDGSYTEEQSQESEMKVLATDFDDEFDDEEPLPAIGTCKALYTFEGQNEGTISVVEGETLYVIEEDKGDGWTRIRRNEDEEGYVPTSYVEVCLDKNAKDS"}}, "data": [{"variants_of": "B1", "details": "with tnks1_human TNKS", "values": [{"variant": "R515A", "effect of a mutation on the interaction": "decreasing interaction"}, {"variant": "R515A;D519A", "effect of a mutation on the interaction": "disrupting interaction"}]}]}
